Laboratory results: paper doi:10.1101/2023.07.05.547778 (bioRxiv, 2023)
Where no end group is shown, it is not given here. The star is where a group is joined. Biotin = O=C1N[C@H]2[C@H](CS[C@H]2CCCCC(=O)*)N1

Experiments:
[1] = biological target: T1, APDTRPAPG (synthetic MUC1 epitope peptide without N-terminal biotin or linker); test: crystal structure
T1 chain: APDTRPAPG

[2] = biological target: T2, biotin-GGS-APDTRPAPG (N-terminally biotinylated synthetic MUC1 VNTR peptide); test: SPR
T2 chain: Biotin-GGSAPDTRPAPG

B1: recombinant 139H2 Fab fragment (Fab, V domains shown)
VH: QVQLQQSGAELVKPGASVKLSCKASGYTFTNYYMYWVLQRPGQGLEWIGEINPSNGGTTFNEKFKNKATLTVDKSSSTAYMQLNSLTSEDSAVYYCTRSRYGNYVNYGMDYWGQGTSVTVSS
VL: DIVMSQSPSSLAVSVGEKVTMSCKSSQSLLYSNTQKNYLAWYQQKPGQSPKLLIYWASTRESGVPDRFTGSGSGTDFTLTISSVKAENLAVYYCQQYYRYPPTFGGGTKLELK
binding result [1]: binds
Kd [2]: 4.5 µM
